± gives the uncertainty stated by the source.
Assay: self-splicing fitness, log relative to wild type (ln ratio); higher = more splicing; Tetrahymena group I intron in knt gene, E. coli kanamycin selection, DiMSum; sequences stand for … in CUCUCU…GGAGGGAAAAGUUAUCAGGCAUGCACCUGGUAGCUAGUCUUUAAACCAAUAGAUUGCAUCGGUUUAAAAGGCAAGACCGUCAAAUUGCGGGAAAGGGGUCAACAGCCGUUCAGUACCAAGUCUCAGGGGAAACUUUGAGAUGGCCUUGCAAAGGGUAUGGUAAUAAGCUGACGGACAUGGUCCUAACCACGCAGCCAAGUCCUAAGUCAACAGAUCUUCUGUUGAUAUGGAUGCAGUUCACAGACUAAAUGUCGGUCGGGGAAGAUGUAUUCUUCUCAUAAGAUAUAGUCGGACCUCUCCUUAAUGGGAGCUAGCGGAUGAAGUGAUGCAACACUGGAGCCGCUGGGAACUAAUUUGUAUGCGAAAGUAUAUUGAUUAGUUUUGGAGUACUCGUGGUCG
In short: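 DiMSum derived fitness as the error-weighted combination of fold changes across replicates, kanamycin versus no kanamycin, normalised to wild type. E. coli BL21(DE3) held the library, which randomised all eight P1ex-region intron nucleotides within the knt kanamycin-resistance gene on pET-22b(+). Six replicate transformations grew overnight at 37°C or 30°C on LB agar with or without 25 μg/mL kanamycin, also containing 100 μg/mL carbenicillin, 50 μM IPTG and 0.2% rhamnose, and pooled colonies were amplicon-sequenced on an Illumina HiSeq 2500.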

| Sequence | self-splicing fitness (ln) (30 °C) | self-splicing fitness (ln) (37 °C) |
| --- | --- | --- |
| UACCAGCAAUAUUACGUUGA | -1.61 ± 0.049 | -0.796 ± 0.062 |
| UACCAGCAAUAUUACGUUGG | -3.21 ± 0.12 | -2.85 ± 0.14 |
| UACGAGCAAUAUUACGAAAG | -2.75 ± 0.42 | -1.29 ± 0.45 |
| UACGAGCAAUAUUACGAACU | -3.46 ± 0.48 | -2.4 ± 0.24 |
| UACGAGCAAUAUUACGACGC | -3 ± 0.27 | -2.09 ± 0.35 |
| UACGAGCAAUAUUACGACUC | -2.51 ± 0.21 | -2.31 ± 0.36 |
| UACGAGCAAUAUUACGAGCA | -2.48 ± 0.16 | -0.109 ± 0.12 |
| UACGAGCAAUAUUACGAGGA | -3.51 ± 0.26 | -2.48 ± 0.22 |
| UACGAGCAAUAUUACGAUUC | -3.01 ± 0.28 | -2.83 ± 0.3 |
| UACGAGCAAUAUUACGCCAG | -3.79 ± 0.3 | -2.88 ± 0.3 |
| UACGAGCAAUAUUACGCCCA | -2.24 ± 0.27 | -1.02 ± 0.29 |
| UACGAGCAAUAUUACGCCGU | -2.69 ± 0.46 | -2.21 ± 0.29 |
| UACGAGCAAUAUUACGCGCU |  | -3.38 ± 0.31 |
| UACGAGCAAUAUUACGCUCU | -1.85 ± 0.21 |  |
| UACGAGCAAUAUUACGGGAU | -2.49 ± 0.14 | -2.74 ± 0.27 |
| UACGAGCAAUAUUACGUAUC | -2.79 ± 0.16 | -2.99 ± 0.27 |
| UACGAGCAAUAUUACGUCUC | -3.24 ± 0.29 | -2.56 ± 0.4 |
| UACGAGCAAUAUUACGUCUU | -3.95 ± 0.33 | -3.41 ± 0.24 |
| UACUAGCAAUAUUACGACAA | -0.443 ± 0.12 | -0.256 ± 0.11 |
| UACUAGCAAUAUUACGACAU | -1.645 ± 0.014 | -0.715 ± 0.033 |
| UACUAGCAAUAUUACGAGAG | -2.94 ± 0.13 | -2.43 ± 0.18 |
| UACUAGCAAUAUUACGAGGA | -3.18 ± 0.2 | -1.54 ± 0.13 |
| UACUAGCAAUAUUACGCCAG | -0.0426 ± 0.17 | -1.03 ± 0.29 |
| UACUAGCAAUAUUACGCCCU | -0.435 ± 0.14 | -0.784 ± 0.15 |
| UACUAGCAAUAUUACGCGAA | -1.97 ± 0.2 | -1.18 ± 0.14 |
| UACUAGCAAUAUUACGCGCU | -3.19 ± 0.18 | -1.8 ± 0.15 |

| Sequence | self-splicing fitness (ln) (30 °C) | self-splicing fitness (ln) (37 °C) |
| --- | --- | --- |
| UACUAGCAAUAUUACGCUGC |  | -3.01 ± 0.43 |
| UACUAGCAAUAUUACGCUGU | -4.54 ± 0.28 | -3.27 ± 0.33 |
| UACUAGCAAUAUUACGGAAG | -3.07 ± 0.26 | -2.91 ± 0.43 |
| UACUAGCAAUAUUACGGACA | -0.57 ± 0.13 | -0.47 ± 0.16 |
| UACUAGCAAUAUUACGGAGC | -1.89 ± 0.25 | -2.56 ± 0.3 |
| UACUAGCAAUAUUACGGCCA | -0.179 ± 0.15 | 0.376 ± 0.16 |
| UACUAGCAAUAUUACGGGAC | -3.54 ± 0.17 | -2.72 ± 0.16 |
| UACUAGCAAUAUUACGGGGU | -4.05 ± 0.19 | -2.71 ± 0.2 |
| UACUAGCAAUAUUACGGUAG | -1.92 ± 0.11 | -1.09 ± 0.12 |
| UACUAGCAAUAUUACGUACU | -2.51 ± 0.19 | -0.347 ± 0.13 |
| UACUAGCAAUAUUACGUAGC | -2.83 ± 0.17 | -2.19 ± 0.27 |
| UACUAGCAAUAUUACGUCAA | -1.32 ± 0.21 | -1.25 ± 0.17 |
| UACUAGCAAUAUUACGUCGG | -2.29 ± 0.15 | -2.18 ± 0.18 |
| UACUAGCAAUAUUACGUCUA | -0.655 ± 0.12 | -0.565 ± 0.11 |
| UACUAGCAAUAUUACGUGAU | -3.07 ± 0.11 | -1.17 ± 0.12 |
| UACUAGCAAUAUUACGUGUG | -1.37 ± 0.067 | -0.828 ± 0.072 |
| UACUAGCAAUAUUACGUUUU | -3.49 ± 0.19 | -1.82 ± 0.15 |
| UAGAAGCAAUAUUACGAAAA | -2.69 ± 0.2 | -2.02 ± 0.17 |
| UAGAAGCAAUAUUACGAACU | -1.79 ± 0.14 | 0.0205 ± 0.13 |
| UAGAAGCAAUAUUACGAAGA | -1.77 ± 0.18 | -0.969 ± 0.17 |
| UAGAAGCAAUAUUACGAGUU |  | -2.07 ± 0.33 |
| UAGAAGCAAUAUUACGAUAC | -2.87 ± 0.32 | -2.46 ± 0.27 |
| UAGAAGCAAUAUUACGAUCG | 0.151 ± 0.093 | 0.149 ± 0.11 |
| UAGAAGCAAUAUUACGAUGA | -0.692 ± 0.13 | -0.446 ± 0.1 |
| UAGAAGCAAUAUUACGAUUC | -2.82 ± 0.17 | -2.06 ± 0.21 |
| UAGAAGCAAUAUUACGAUUU | -0.745 ± 0.067 | -1.11 ± 0.095 |

| Sequence | self-splicing fitness (ln) (30 °C) | self-splicing fitness (ln) (37 °C) |
| --- | --- | --- |
| UAGAAGCAAUAUUACGCACU | -0.642 ± 0.15 | -0.846 ± 0.17 |
| UAGAAGCAAUAUUACGCAUG | -1.12 ± 0.1 | 0.583 ± 0.12 |
| UAGAAGCAAUAUUACGCCAG | -1.3 ± 0.16 | -0.617 ± 0.21 |
| UAGAAGCAAUAUUACGCCGA | -1.47 ± 0.32 | -1 ± 0.25 |
| UAGAAGCAAUAUUACGGCUA | -0.274 ± 0.12 | -0.13 ± 0.16 |
| UAGAAGCAAUAUUACGGUUG | -1.79 ± 0.089 | -0.948 ± 0.11 |
| UAGAAGCAAUAUUACGUAUC | -3.43 ± 0.28 | -2.01 ± 0.15 |
| UAGAAGCAAUAUUACGUCUA | -1.81 ± 0.16 | -0.539 ± 0.14 |
| UAGAAGCAAUAUUACGUGGC | -3.12 ± 0.21 | -3.09 ± 0.25 |
| UAGAAGCAAUAUUACGUUCG | -0.157 ± 0.067 | 0.264 ± 0.088 |
| UAGAAGCAAUAUUACGUUUC | -2.28 ± 0.16 | -0.293 ± 0.17 |
| UAGCAGCAAUAUUACGAACG | -0.486 ± 0.06 | 0.327 ± 0.085 |
| UAGCAGCAAUAUUACGAGAC | -1.84 ± 0.24 | -3.06 ± 0.32 |
| UAGCAGCAAUAUUACGAUUA | -0.00343 ± 0.049 | -0.0327 ± 0.066 |
| UAGCAGCAAUAUUACGCAAC | -2.32 ± 0.16 | -2.24 ± 0.22 |
| UAGCAGCAAUAUUACGCCUG | -1.79 ± 0.11 | -0.602 ± 0.13 |
| UAGCAGCAAUAUUACGCGAG | -1.83 ± 0.097 | -0.971 ± 0.11 |
| UAGCAGCAAUAUUACGCGUA | -1.2 ± 0.1 | 0.478 ± 0.1 |
| UAGCAGCAAUAUUACGCGUC | -3.43 ± 0.2 | -2.87 ± 0.22 |
| UAGCAGCAAUAUUACGCUUG | -2.3 ± 0.18 | -0.988 ± 0.19 |
| UAGCAGCAAUAUUACGGCGG | -0.483 ± 0.084 | -0.353 ± 0.13 |
| UAGCAGCAAUAUUACGGCUC | -0.698 ± 0.094 | -0.839 ± 0.12 |
| UAGCAGCAAUAUUACGGGAC | -4.55 ± 0.31 | -2.75 ± 0.26 |
| UAGCAGCAAUAUUACGGGAG | -2.58 ± 0.099 | -2.11 ± 0.11 |

From the supplement of paper PMC7877785
